According to patent US20110263454A1, “Methods of Identifying Functional Characteristics of Promoters, Transcription Modifying Proteins and Transcription Modulating Agents” (Salk Institute for Biological Studies, priority 2008, published 2011):

Key:
hIFNg promoter = test: NHR-promoter luciferase screen, hIFNg promoter; format: cell-based, human; details: for Luc. act., normalized to lacZ / Normalized Luc. act., normalized to control: IFNg promoter, HR component without or with ligand; for hIFNg promoter reporter activity: transcription factor +/- ligand, control = 1.00
Procedure, shortened: (§1)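 CV-1 cells were co-transfected with 50 ng NHR (homodimer or NHR/RXR heterodimer), 100 ng promoter-luciferase construct and 50 ng LacZ. Luciferase was normalized to LacZ and to a no-NHR/no-ligand control.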

mUCP2 promoter = test: NHR-promoter luciferase screen, mUCP2 promoter; format: cell-based, mouse; details: for Luc. act., normalized to lacZ / Normalized Luc. act., normalized to control: mUCP2 promoter reporter, co-transfected HR, with or without its ligand; for Normalized Luc. act., normalized to control: relative to control; for luciferase activity normalized to lacZ activity and to a control, mUCP2: mUCP2 promoter-luciferase, CV-1 cells, NHR +/- ligand, control = 1.00
Procedure, shortened: as §1

hIRF7 promoter = test: NHR-promoter luciferase screen, hIRF7 promoter; format: cell-based, human; details: for Normalized Luc. act., normalized to control / Luc. act., normalized to lacZ: IRF7 promoter reporter; for Normalized Luc. act., normalized to control: HR without or with its ligand, relative to control; for Luc. act., normalized to lacZ: hormone receptor (HR) without or with its ligand; for hIRF7 promoter reporter activity: transcription factor +/- ligand, control = 1.00
Procedure, shortened: as §1

mUCP1 promoter = test: NHR-promoter luciferase screen, mUCP1 promoter; format: cell-based, mouse; details: for Luc. act., normalized to lacZ / Normalized Luc. act., normalized to control: mUCP1 promoter reporter, co-transfected HR, with or without its ligand; for Normalized Luc. act., normalized to control: relative to control; for luciferase activity normalized to lacZ activity and to a control, mUCP!: mUCP! promoter-luciferase, CV-1 cells, NHR +/- ligand, control = 1.00
Procedure, shortened: as §1

SREBP1c promoter = test: NHR-promoter luciferase screen, SREBP1c promoter; format: cell-based, mouse; details: for Luc. act., normalized to lacZ / Normalized Luc. act., normalized to control: SREBP1c promoter, HR component without or with ligand; for mSREBP1-c promoter reporter activity: transcription factor +/- ligand, control = 1.00
Procedure, shortened: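 CV-1 cells co-transfected with 50 ng NHR (homodimer or NHR/RXR heterodimer), 100 ng promoter-luciferase and 50 ng LacZ. Luciferase read at 48 h, normalised to LacZ and to a no-NHR/no-ligand control.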

hPOMC promoter = test: NHR-promoter luciferase screen, hPOMC promoter; format: cell-based, human; details: for Luc. act., normalized to lacZ / Normalized Luc. act., normalized to control: hPOMC promoter, HR/ligand component; for hPOMC promoter reporter activity: transcription factor +/- ligand, control = 1.00
Procedure, shortened: as §1

| Molecule | Luc. act., normalized to lacZ (hIFNg promoter) | Normalized Luc. act., normalized to control (hIFNg promoter) | hIFNg promoter reporter activity (hIFNg promoter) | Luc. act., normalized to lacZ (mUCP2 promoter) | Normalized Luc. act., normalized to control (mUCP2 promoter) | luciferase activity normalized to lacZ activity and to a control, mUCP2 (mUCP2 promoter) | Normalized Luc. act., normalized to control (hIRF7 promoter) | Luc. act., normalized to lacZ (hIRF7 promoter) | hIRF7 promoter reporter activity (hIRF7 promoter) | Luc. act., normalized to lacZ (mUCP1 promoter) | Normalized Luc. act., normalized to control (mUCP1 promoter) | luciferase activity normalized to lacZ activity and to a control, mUCP! (mUCP1 promoter) | Luc. act., normalized to lacZ (SREBP1c promoter) | Normalized Luc. act., normalized to control (SREBP1c promoter) | mSREBP1-c promoter reporter activity (SREBP1c promoter) | Luc. act., normalized to lacZ (hPOMC promoter) | Normalized Luc. act., normalized to control (hPOMC promoter) | hPOMC promoter reporter activity (hPOMC promoter) |
| --- | --- | --- | --- | --- | --- | --- | --- | --- | --- | --- | --- | --- | --- | --- | --- | --- | --- | --- |
| CTF3: COUP-TF3 (NR2F6), cDNA driver (protein, UniProt P10588 1-404, looked up) Nuclear receptor subfamily 2 …: MAMVTGGWGGPGGDTNGVDKAGGYPRAAEDDSASPPGAASDAEPGDEERPGLQVDCVVCGDKSSGKHYGVFTCEGCKSFFKRSIRRNLSYTCRSNRDCQIDQHHRNQCQYCRLKKCFRVGMRKEAVQRGRIPHSLPGAVAASSGSPPGSALAAVASGGDLFPGQPVSELIAQLLRAEPYPAAAGRFGAGGGAAGAVLGIDNVCELAARLLFSTVEWARHAPFFPELPVADQVALLRLSWSELFVLNAAQAALPLHTAPLLAAAGLHAAPMAAERAVAFMDQVRAFQEQVDKLGRLQVDSAEYGCLKAIALFTPDACGLSDPAHVESLQEKAQVALTEYVRAQYPSQPQRFGRLLLRLPALRAVPASLISQLFFMRLVGKTPIETLIRDMLLSGSTFNWPYGSGQ | 28.5 | 1.8 | 1.79 | 54.4 | 0.5 | 0.49 | 1.0 | 25.5 | 0.97 | 1.9 | 0.4 | 0.42 | 230.3 | 0.7 | 0.71 | 1.8 | 0.4 | 0.42 |
| PR: Progesterone Receptor (NR3C3), cDNA driver (protein, UniProt P06401 1-933, looked up) Progesterone receptor: MTELKAKGPRAPHVAGGPPSPEVGSPLLCRPAAGPFPGSQTSDTLPEVSAIPISLDGLLFPRPCQGQDPSDEKTQDQQSLSDVEGAYSRAEATRGAGGSSSSPPEKDSGLLDSVLDTLLAPSGPGQSQPSPPACEVTSSWCLFGPELPEDPPAAPATQRVLSPLMSRSGCKVGDSSGTAAAHKVLPRGLSPARQLLLPASESPHWSGAPVKPSPQAAAVEVEEEDGSESEESAGPLLKGKPRALGGAAAGGGAAAVPPGAAAGGVALVPKEDSRFSAPRVALVEQDAPMAPGRSPLATTVMDFIHVPILPLNHALLAARTRQLLEDESYDGGAGAASAFAPPRSSPCASSTPVAVGDFPDCAYPPDAEPKDDAYPLYSDFQPPALKIKEEEEGAEASARSPRSYLVAGANPAAFPDFPLGPPPPLPPRATPSRPGEAAVTAAPASASVSSASSSGSTLECILYKAEGAPPQQGPFAPPPCKAPGASGCLLPRDGLPSTSASAAAAGAAPALYPALGLNGLPQLGYQAAVLKEGLPQVYPPYLNYLRPDSEASQSPQYSFESLPQKICLICGDEASGCHYGVLTCGSCKVFFKRAMEGQHNYLCAGRNDCIVDKIRRKNCPACRLRKCCQAGMVLGGRKFKKFNKVRVVRALDAVALPQPVGVPNESQALSQRFTFSPGQDIQLIPPLINLLMSIEPDVIYAGHDNTKPDTSSSLLTSLNQLGERQLLSVVKWSKSLPGFRNLHIDDQITLIQYSWMSLMVFGLGWRSYKHVSGQMLYFAPDLILNEQRMKESSFYSLCLTMWQIPQEFVKLQVSQEEFLCMKVLLLLNTIPLEGLRSQTQFEEMRSSYIRELIKAIGLRQKGVVSSSQRFYQLTKLLDNLHDLVKQLHLYCLNTFIQSRALSVEFPEMMSEVIAAQLPKILAGMVKPLLFHKK | 22.6 | 1.4 | 1.42 | 178.8 | 1.6 | 1.63 | 1.3 | 33.0 | 1.25 | 5.4 | 1.2 | 1.21 | 466.4 | 1.4 | 1.45 | 3.2 | 0.7 | 0.75 |
| hMR: Mineralocorticoid Receptor (NR3C2, MR), cDNA driver (protein, UniProt P08235 1-984, looked up) Mineralocorticoid receptor: METKGYHSLPEGLDMERRWGQVSQAVERSSLGPTERTDENNYMEIVNVSCVSGAIPNNSTQGSSKEKQELLPCLQQDNNRPGILTSDIKTELESKELSATVAESMGLYMDSVRDADYSYEQQNQQGSMSPAKIYQNVEQLVKFYKGNGHRPSTLSCVNTPLRSFMSDSGSSVNGGVMRAVVKSPIMCHEKSPSVCSPLNMTSSVCSPAGINSVSSTTASFGSFPVHSPITQGTPLTCSPNVENRGSRSHSPAHASNVGSPLSSPLSSMKSSISSPPSHCSVKSPVSSPNNVTLRSSVSSPANINNSRCSVSSPSNTNNRSTLSSPAASTVGSICSPVNNAFSYTASGTSAGSSTLRDVVPSPDTQEKGAQEVPFPKTEEVESAISNGVTGQLNIVQYIKPEPDGAFSSSCLGGNSKINSDSSFSVPIKQESTKHSCSGTSFKGNPTVNPFPFMDGSYFSFMDDKDYYSLSGILGPPVPGFDGNCEGSGFPVGIKQEPDDGSYYPEASIPSSAIVGVNSGGQSFHYRIGAQGTISLSRSARDQSFQHLSSFPPVNTLVESWKSHGDLSSRRSDGYPVLEYIPENVSSSTLRSVSTGSSRPSKICLVCGDEASGCHYGVVTCGSCKVFFKRAVEGQHNYLCAGRNDCIIDKIRRKNCPACRLQKCLQAGMNLGARKSKKLGKLKGIHEEQPQQQQPPPPPPPPQSPEEGTTYIAPAKEPSVNTALVPQLSTISRALTPSPVMVLENIEPEIVYAGYDSSKPDTAENLLSTLNRLAGKQMIQVVKWAKVLPGFKNLPLEDQITLIQYSWMCLSSFALSWRSYKHTNSQFLYFAPDLVFNEEKMHQSAMYELCQGMHQISLQFVRLQLTFEEYTIMKVLLLLSTIPKDGLKSQAAFEEMRTNYIKELRKMVTKCPNNSGQSWQRFYQLTKLLDSMHDLVSDLLEFCFYTFRESHALKVEFPAMLVEIISDQLPKVESGNAKPLYFHRK | 10.4 | 0.7 | 0.65 | 58.8 | 0.5 | 0.54 | 0.8 | 21.1 | 0.80 | 2.1 | 0.5 | 0.48 | 223.2 | 0.7 | 0.69 | – | 0.0 | 0.00 |
| NR4a2: NR4a2 (NR4A2; NURR1), nuclear hormone receptor cDNA driver (protein, UniProt P43354 1-598, looked up) Nuclear receptor subfamily 4 …: MPCVQAQYGSSPQGASPASQSYSYHSSGEYSSDFLTPEFVKFSMDLTNTEITATTSLPSFSTFMDNYSTGYDVKPPCLYQMPLSGQQSSIKVEDIQMHNYQQHSHLPPQSEEMMPHSGSVYYKPSSPPTPTTPGFQVQHSPMWDDPGSLHNFHQNYVATTHMIEQRKTPVSRLSLFSFKQSPPGTPVSSCQMRFDGPLHVPMNPEPAGSHHVVDGQTFAVPNPIRKPASMGFPGLQIGHASQLLDTQVPSPPSRGSPSNEGLCAVCGDNAACQHYGVRTCEGCKGFFKRTVQKNAKYVCLANKNCPVDKRRRNRCQYCRFQKCLAVGMVKEVVRTDSLKGRRGRLPSKPKSPQEPSPPSPPVSLISALVRAHVDSNPAMTSLDYSRFQANPDYQMSGDDTQHIQQFYDLLTGSMEIIRGWAEKIPGFADLPKADQDLLFESAFLELFVLRLAYRSNPVEGKLIFCNGVVLHRLQCVRGFGEWIDSIVEFSSNLQNMNIDISAFSCIAALAMVTERHGLKEPKRVEELQNKIVNCLKDHVTFNNGGLNRPNYLSKLLGKLPELRTLCTQGLQRIFYLKLEDLVPPPAIIDKLFLDTLPF | 24.3 | 1.5 | 1.53 | 129.8 | 1.2 | 1.18 | 0.9 | 23.2 | 0.88 | 4.4 | 1.0 | 0.99 | 456.2 | 1.4 | 1.42 | 2.1 | 0.5 | 0.49 |
